Laboratory results taken from patent US20210253711A1 (CULLINAN MICA, published 2021).

Key:
[1] = biological target: T1, Recombinant MICA*09 protein; experiment: ELISA, coated MICA*09, OD 450 nm
T1 construct: Coated on ELISA plates
T1 sequence (Q29983 whole entry, species assumed, looked up): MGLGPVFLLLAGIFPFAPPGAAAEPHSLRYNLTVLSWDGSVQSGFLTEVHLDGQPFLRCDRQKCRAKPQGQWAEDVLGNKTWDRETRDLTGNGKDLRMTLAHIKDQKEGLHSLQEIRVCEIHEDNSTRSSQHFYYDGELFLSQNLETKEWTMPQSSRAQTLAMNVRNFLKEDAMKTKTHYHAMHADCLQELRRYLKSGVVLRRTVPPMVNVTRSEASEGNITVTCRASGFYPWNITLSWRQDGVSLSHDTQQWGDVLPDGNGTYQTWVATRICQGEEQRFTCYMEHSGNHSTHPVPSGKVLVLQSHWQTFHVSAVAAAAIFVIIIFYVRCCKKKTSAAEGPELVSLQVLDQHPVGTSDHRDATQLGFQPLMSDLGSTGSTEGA
Protocol: (§1) Recombinant MICA*01, MICA*02, MICA*04, MICA*08, MICA*09, and MICB proteins were diluted to 1 μg/ml in 50 mM sodium carbonate buffer, pH 9.6, and coated onto high binding 96-well microplates (Corning #9018), 100 ng in 100 ul per well. The following morning, coated ELISA plates were washed three times with TBS-Tween-20, pH 7.4 and then blocked in SuperBlock T20 Blocking Buffer (Pierce #37536). After blocking, ELISA plates were washed once with TBS-T and incubated with serially diluted anti-MICA antibody (0-1 μg/ml) for approximately two hours at room temperature. Following the incubation, ELISA plates were washed three times with TBS-T and then incubated with Goat anti-Mouse IgG (H+L)-HRP conjugate (ThermoFisher Scientific #626520) for 45 minutes at room temperature with shaking (˜400 rpm). After the incubation, ELISA plates were washed three times with TBS-T and incubated with Super Sensitive Liquid Substrate TMB (Sigma #T4444), 100 ul per well, until color development was sufficient. The reaction was stopped with 1N sulfuric acid, 100 ul per well. Optical density (OD) values were measured at 450 nm using a microplate reader.

[2] = biological target: T2, Recombinant MICB protein (UniProt Q29980 23-298, limits assumed); experiment: ELISA, coated MICB, OD 450 nm
T2 construct: Coated on ELISA plates
T2 sequence (looked up): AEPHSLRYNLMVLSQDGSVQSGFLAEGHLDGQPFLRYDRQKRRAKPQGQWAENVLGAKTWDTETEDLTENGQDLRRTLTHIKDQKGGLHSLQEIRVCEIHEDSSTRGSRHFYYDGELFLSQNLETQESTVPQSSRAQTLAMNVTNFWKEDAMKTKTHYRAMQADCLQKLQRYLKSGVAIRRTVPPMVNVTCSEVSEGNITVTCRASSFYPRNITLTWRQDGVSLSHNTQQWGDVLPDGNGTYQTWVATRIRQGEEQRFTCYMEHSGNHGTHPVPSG
Protocol: as §1

[3] = biological target: T3, Recombinant MICA*01 protein (Homo sapiens (Human), UniProt Q29983 24-307); experiment: ELISA, coated MICA*01, OD 450 nm
T3 construct: Coated on ELISA plates
T3 sequence: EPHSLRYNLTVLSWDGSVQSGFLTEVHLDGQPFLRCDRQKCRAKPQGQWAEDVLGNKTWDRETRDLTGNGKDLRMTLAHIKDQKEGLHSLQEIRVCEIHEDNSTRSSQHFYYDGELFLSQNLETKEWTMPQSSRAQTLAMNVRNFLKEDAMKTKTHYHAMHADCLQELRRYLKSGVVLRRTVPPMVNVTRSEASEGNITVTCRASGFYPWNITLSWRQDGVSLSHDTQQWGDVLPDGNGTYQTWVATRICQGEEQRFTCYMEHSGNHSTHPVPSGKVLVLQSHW
Protocol: as §1

[4] = biological target: T4, Recombinant MICA*02 protein; experiment: ELISA, coated MICA*02, OD 450 nm
T4 construct: Coated on ELISA plates
T4 sequence (Q29983 whole entry, species assumed, looked up): T1 sequence (Q29983 whole entry, species assumed, looked up)
Protocol: as §1

[5] = biological target: T5, Recombinant MICA*04 protein; experiment: ELISA, coated MICA*04, OD 450 nm
T5 construct: Coated on ELISA plates
T5 sequence (Q29983 whole entry, looked up): T1 sequence (Q29983 whole entry, species assumed, looked up)
Protocol: as §1

[6] = biological target: T6, Recombinant MICA*08 protein; experiment: ELISA, coated MICA*08, OD 450 nm
T6 construct: Coated on ELISA plates
T6 sequence (Q29983 whole entry, looked up): T1 sequence (Q29983 whole entry, species assumed, looked up)
Protocol: as §1

Measured: EC50 (read off the curve)

B1: 16F10.C12 (antibody, V domains shown)
VH: EVQLQESGPGLVAPSQSLSITCTVSGFSLTAFGVNWVRQPPGKGLEWLGMIWGDGNTDYNSTLRSRLSISKDNSKSQVFLKLNSLQTDDTARYFCARETYYGNYAGLGYWGQGTLVTVSA
VL: QIVLTQSPAIMSASIGERVTMTCTASSSVSSNYLHWYQQKPRSSPKLWIYTTSNLASGVPTRFSGSGSGTSYSLTISSMEAEDAATYYCHQFHRSPFTFGSGTKLEIK
notes: the mAb was captured on anti-mouse IgG Fc biosensors and detected with goat anti-mouse IgG, so it is a mouse IgG; also called anti-MICA/B mAb; anti-MICA antibody
~0.03 µg/mL: [1] | [2] | [3] | [4]

B2: 3F9.E4 (antibody, V domains shown)
VH: EVQLQESGEGLVKPGGSLKLSCAASGFTFSNYAMSWVRQTPEKRLEWVAYISPGGDYIYYADTVKGRFTISRDNARNTLYLQMSSLKSEDTAMYYCTTDRRHYGSYAMDYWGQGISVTVSS
VL: DIVMTQAAPSVPVTPGESVSISCRSSKSLLHSNGNTYLYWFLQRPGQSPQLLIYRMSNLASGVPDRFSGSGSGTAFTLRISRVEAEDVGVYYCMQHLEYPFTFGSGTKLEIK
notes: as for B1
~0.03 µg/mL: all assays above
